Patent US20230310629A1 (Merck KGaA, published 2023)
Where no end group is shown, it is not given here.

T1: biotinylated synthetic VNTR peptide of MUC1 (APDTRPAPGSTAPPAC-biotin) (human)
T1 construct: also called human MUC1-VNTR peptide
T1 peptide: APDTRPAPGSTAPPAC-biotin

T2: fragment of human MUC1 immunodominant core peptide (APDTRPAPGSTAPPA) (human)
T2 construct: also called MUC1 peptide; human MUC1 truncated peptide
T2 peptide: APDTRPAPGSTAPPA


Assays:
[1] = target: T1, biotinylated synthetic VNTR peptide of …; assay: Biacore, human MUC1-VNTR; ka1
[2] = target: T1, biotinylated synthetic VNTR peptide of …; assay: Biacore, human MUC1-VNTR; kd1
[3] = target: T1, biotinylated synthetic VNTR peptide of …; assay: Biacore, human MUC1-VNTR peptide
[4] = target: T2, fragment of human MUC1 immunodominant …; assay: co-crystallisation, X-ray structure

Row | binding result [4] | Binder | kon [1] | koff [2] | Kd [3]
1 |  | 1993-H02 with an HT186-D11 light chain (anti-MUC1 antibody H02) (antibody, V domains shown, One molecule is used here for both experiments) VH: QMQLVQSEAELKKPGASVKVSCKASGYSFTSHFMHWVRQAPGQGLEWMGWIDPVTGGTKYAQNFQGWVTMTRDTSIRTAYLELSRLRSDDTAMYYCAREARADRGQFDKWGQGTLVTVAS VL: QSVLTQPPSVSVAPGKTARITCGGNNIGSKSVHWYQQKPGQAPALVIYYGSNRPSGIPERFSGSNSGNTATLTISRVEAGDEADYYCQVWDSSSDWVFGGGTKLTVL | 126000 M⁻¹ s⁻¹ | 0.0017 s⁻¹ | 0.901 nM
2 | binds | H02-scFv, the MUC1-binding arm of Molecule 1 (scFv) scFv: QMQLVQSEAELKKPGASVKVSCKASGYSFTSHFMHWVRQAPGQGLEWMGWIDPVTGGTKYAQNFQGWVTMTRDTSIRTAYLELSRLRSDDTAMYYCAREARADRGQFDKWGQGTLVTVASGGGGSGGGGSGGGGSQSVLTQPPSVSVAPGKTARITCGGNNIGSKSVHWYQQKPGQAPALVIYYGSNRPSGIPERFSGSNSGNTATLTISRVEAGDEADYYCQVWDSSSDWVFGGGTKLTVL |  |  | 
